Data as given in US20180155451A1 (published 2018).
Substitutions are numbered along the chain they refer to. In names and notes the source's numbering stands.

T1: FcgRIIb (human, UniProt P31994 43-217)
T1 construct: extracellular domain; Soluble extracellular domain with C-terminal His tag; also called FcγRIIb; CD32B; not shown: His tag attached to the C terminus
T1 sequence (looked up): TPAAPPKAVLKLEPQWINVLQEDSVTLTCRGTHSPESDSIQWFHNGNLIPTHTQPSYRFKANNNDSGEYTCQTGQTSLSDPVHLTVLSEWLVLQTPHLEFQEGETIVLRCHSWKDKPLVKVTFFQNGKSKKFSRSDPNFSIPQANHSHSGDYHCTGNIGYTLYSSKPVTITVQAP

T2: FcgRIIaR (human, UniProt P12318 34-217)
T2 construct: extracellular domain; Soluble extracellular domain with C-terminal His tag; also called FcγRIIa R; FcγRIIa type R; not shown: His tag attached to the C terminus
T2 sequence (looked up): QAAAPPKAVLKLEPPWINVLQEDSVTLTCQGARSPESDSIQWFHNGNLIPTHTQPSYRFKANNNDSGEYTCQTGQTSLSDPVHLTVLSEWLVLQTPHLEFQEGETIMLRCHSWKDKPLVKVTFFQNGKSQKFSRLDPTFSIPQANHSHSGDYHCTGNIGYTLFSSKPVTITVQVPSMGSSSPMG

T3: FcgRIIaH (human, UniProt P12318 34-217)
T3 construct: extracellular domain; Soluble extracellular domain with C-terminal His tag; also called FcγRIIa H; FcγRIIa type H; not shown: His tag attached to the C terminus
T3 sequence (looked up): T2 sequence (looked up) with R134H

T4: FcγRIIa H (FcγRIIa, allotype with His at position 131), extracellular domain with C-terminal His tag (human, UniProt P12318 34-217)
T4 construct: extracellular domain; Soluble receptor expressed in FreeStyle293 cells and used as the analyte in Biacore; also called FcgRIIa H; FcγRIIa type H; not shown: His tag attached to the C terminus
T4 sequence (looked up): T2 sequence (looked up) with R134H

B1: H240-Kn172/H240-Hl177/L73-k0 (antibody, human IgG1, kappa)
heavy 1: QDQLVQSGAEVKKPGASVKVSCKASGFNIKDTYIQWVRQAPGQGLEWMGRIDPLRKQTKYREKFEGRVTITADTSTNTAYMELSSLRSEDTAVYYCVRSGREFDYWGQGTLVTVSSASTKGPSVFPLAPSSKSTSGGTAALGCLVKDYFPEPVTVSWNSGALTSGVHTFPAVLQSSGLYSLSSVVTVPSSSLGTQTYICNVNHKPSNTKVDKKVEPKSCDKTHTCPPCPAPEYYWGPMVFLFPPKPKDTLMISRTPEVTCVVVDVSDEDPEVKFNWYVDGVEVHNAKTKPREEQYNATYRVVSVLTVLHQDWLNGKEYKCKVSNKDLPAPMEKTISKAKGQPREPQVCTLPPSRDELTKNQVSLWCLVKGFYPSDIAVEWESNGQPENNYKTTPPVLDSDGSFFLYSKLTVDKSRWQQGNVFSCSVMHEALHNHYTQKSLSLSP
heavy 2: QDQLVQSGAEVKKPGASVKVSCKASGFNIKDTYIQWVRQAPGQGLEWMGRIDPLRKQTKYREKFEGRVTITADTSTNTAYMELSSLRSEDTAVYYCVRSGREFDYWGQGTLVTVSSASTKGPSVFPLAPSSKSTSGGTAALGCLVKDYFPEPVTVSWNSGALTSGVHTFPAVLQSSGLYSLSSVVTVPSSSLGTQTYICNVNHKPSNTKVDKKVEPKSCDKTHTCPPCPAPELLGGPSVFLFPPKPKDTLMISRTPEVTCVVVDVSHEEPEVKFNWYVDGVEVHNAKTKPREEQYNSTYRVVSVLTVLHQDWLNGKEYKCKVSNDALPKPQEETISKAKGQPREPQVYTLPPSRCELTKNQVSLSCAVKGFYPSDIAVEWESNGQPENNYKTTPPVLDSDGSFFLVSKLTVDKSRWQQGNVFSCSVMHEALHNHYTQKSLSLSP
light: DIQMTQSPSSLSASVGDRVTITCRASQDIHKYIAWYQQKPGQAPRLLIQYTSTLQPGVPSRFSGSGSGTDYTFTISSLQPEDIATYYCLQYEQLRTFGGGTKVEIKRTVAAPSVFIFPPSDEQLKSGTASVVCLLNNFYPREAKVQWKVDNALQSGNSQESVTEQDSKDSTYSLSSTLTLSKADYEKHKVYACEVTHQGLSSPVTKSFNRGEC
notes: Heterodimerized anti-epiregulin IgG1 antibody; I332M introduced into H240-Kn120 and I332Q into H240-Hl068; also called H240-Kn172/H240-HI177/L73-k0
B2: H240-Kn178/H240-Hl068/L73-k0 (antibody, human IgG1, kappa)
heavy 1: B1 heavy 1 with M331I, K333Y
heavy 2: B1 heavy 2 with Q331I
light: B1 light
notes: Heterodimerized anti-epiregulin IgG1 antibody; K334Y introduced into H240-Kn120; also called H240-Kn178/H240-HI068/L73-k0
B3: H240-Kn173/H240-Hl068/L73-k0 (antibody, human IgG1, kappa)
heavy 1: B1 heavy 1 with M331Q
heavy 2: B1 heavy 2 with Q331I
light: B1 light
notes: Heterodimerized anti-epiregulin IgG1 antibody; I332Q introduced into H240-Kn120; also called H240-Kn173/H240-HI068/L73-k0
B4: GpH7-B3 variant T335_02A/GpL16-k0 (homodimerized antibody, Ho Ab) (antibody, human IgG1, kappa)
heavy: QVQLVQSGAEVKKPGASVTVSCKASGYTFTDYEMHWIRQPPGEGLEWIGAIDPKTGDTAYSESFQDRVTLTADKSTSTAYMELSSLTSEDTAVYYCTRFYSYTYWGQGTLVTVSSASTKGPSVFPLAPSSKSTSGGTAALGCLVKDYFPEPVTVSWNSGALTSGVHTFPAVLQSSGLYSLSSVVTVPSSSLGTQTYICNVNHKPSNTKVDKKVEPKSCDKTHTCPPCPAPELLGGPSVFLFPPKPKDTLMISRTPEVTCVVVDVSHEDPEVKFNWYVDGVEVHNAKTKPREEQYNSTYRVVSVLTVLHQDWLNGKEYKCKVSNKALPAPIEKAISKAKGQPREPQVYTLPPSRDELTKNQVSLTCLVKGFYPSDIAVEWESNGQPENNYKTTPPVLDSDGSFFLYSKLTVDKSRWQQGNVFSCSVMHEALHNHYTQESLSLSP
light: DIVMTQSPLSLPVTPGEPASISCQASESLVHSNRNTYLHWYLQKPGQSPQLLIYKVSNRFSGVPDRFSGSGSGTDFTLKISRVEAEDVGVYYCSQNTHVPPTFGQGTKVEIERTVAAPSVFIFPPSDEQLKSGTASVVCLLNNFYPREAKVQWKVDNALQSGNSQESVTEQDSKDSTYSLSSTLTLSKADYEKHKVYACEVTHQGLSSPVTKSFNRGEC
notes: Anti-glypican-3 IgG1 (G1d with K439E = GpH7-B3); the substitution stands in both H chains; also called Ho Ab T335A
B5: GpH7-B3 variant T335_05P/GpL16-k0 (homodimerized antibody, Ho Ab) (antibody, human IgG1, kappa)
heavy: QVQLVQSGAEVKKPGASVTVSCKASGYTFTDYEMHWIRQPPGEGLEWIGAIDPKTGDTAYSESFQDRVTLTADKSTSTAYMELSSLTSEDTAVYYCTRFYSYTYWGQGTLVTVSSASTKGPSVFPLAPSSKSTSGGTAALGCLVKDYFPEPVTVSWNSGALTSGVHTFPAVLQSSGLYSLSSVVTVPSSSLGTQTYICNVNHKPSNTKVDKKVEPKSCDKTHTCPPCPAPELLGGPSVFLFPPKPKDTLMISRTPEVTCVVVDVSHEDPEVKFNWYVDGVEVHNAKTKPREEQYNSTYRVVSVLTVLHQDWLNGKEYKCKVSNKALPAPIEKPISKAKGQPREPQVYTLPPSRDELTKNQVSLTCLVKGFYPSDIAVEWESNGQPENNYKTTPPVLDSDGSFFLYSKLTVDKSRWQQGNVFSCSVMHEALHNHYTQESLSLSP
light: B4 light
notes: Anti-glypican-3 IgG1 (GpH7-B3 background); substitution in both H chains; Position is EU numbering; also called Ho Ab T335P
B6: GpH7-B3 variant T335_06M/GpL16-k0 (homodimerized antibody, Ho Ab) (antibody, human IgG1, kappa)
heavy: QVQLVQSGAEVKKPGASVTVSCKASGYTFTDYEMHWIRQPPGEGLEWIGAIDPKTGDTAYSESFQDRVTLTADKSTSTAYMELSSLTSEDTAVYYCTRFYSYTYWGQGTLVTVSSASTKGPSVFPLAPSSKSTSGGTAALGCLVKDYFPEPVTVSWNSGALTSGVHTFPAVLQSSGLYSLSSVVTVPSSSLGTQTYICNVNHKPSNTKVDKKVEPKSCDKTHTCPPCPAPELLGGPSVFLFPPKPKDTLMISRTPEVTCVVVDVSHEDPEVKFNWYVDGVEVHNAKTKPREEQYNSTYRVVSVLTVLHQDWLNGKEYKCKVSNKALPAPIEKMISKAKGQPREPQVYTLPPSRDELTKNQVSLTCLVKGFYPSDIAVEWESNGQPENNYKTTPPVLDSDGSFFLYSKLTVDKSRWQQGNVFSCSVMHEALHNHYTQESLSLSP
light: B4 light
notes: Anti-glypican-3 IgG1 (GpH7-B3 background); substitution in both H chains; Position is EU numbering; also called Ho Ab T335M
B7: GpH7-B3 variant Y300_08L/GpL16-k0 (homodimerized antibody, Ho Ab) (antibody, human IgG1, kappa)
heavy: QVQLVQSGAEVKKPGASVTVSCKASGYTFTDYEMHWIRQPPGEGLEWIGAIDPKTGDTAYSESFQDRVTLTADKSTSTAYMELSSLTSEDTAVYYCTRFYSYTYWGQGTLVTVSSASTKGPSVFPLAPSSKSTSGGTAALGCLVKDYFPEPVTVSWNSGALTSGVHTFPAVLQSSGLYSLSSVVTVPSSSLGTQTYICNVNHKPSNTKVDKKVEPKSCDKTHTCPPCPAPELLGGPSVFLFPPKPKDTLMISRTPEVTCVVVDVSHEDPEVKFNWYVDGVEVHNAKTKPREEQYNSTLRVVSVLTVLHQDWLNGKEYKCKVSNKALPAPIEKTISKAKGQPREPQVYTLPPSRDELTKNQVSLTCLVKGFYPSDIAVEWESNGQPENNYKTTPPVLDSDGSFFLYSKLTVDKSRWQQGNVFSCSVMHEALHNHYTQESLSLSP
light: B4 light
notes: Anti-glypican-3 IgG1 (GpH7-B3 background); substitution in both H chains; Position is EU numbering; also called Ho Ab Y300L

Target: T5, FcgRIa (human, UniProt P12314 16-292)
T5 construct: extracellular domain; Soluble extracellular domain with C-terminal His tag, expressed in FreeStyle293 cells; also called FcγRIa; FcγRI; not shown: His tag attached to the C terminus
Test: SPR (Biacore); KD of H240-Kn120/H240-Hl068/L73-k0 divided by KD of this antibody
Description: (§1) Analysis of interaction between obj ective antibody and the FcγR was carried out using Biacore T100 (GE Healthcare), Biacore T200, Biacore A100, and Biacore 4000.

T5 sequence (P12314 16-292): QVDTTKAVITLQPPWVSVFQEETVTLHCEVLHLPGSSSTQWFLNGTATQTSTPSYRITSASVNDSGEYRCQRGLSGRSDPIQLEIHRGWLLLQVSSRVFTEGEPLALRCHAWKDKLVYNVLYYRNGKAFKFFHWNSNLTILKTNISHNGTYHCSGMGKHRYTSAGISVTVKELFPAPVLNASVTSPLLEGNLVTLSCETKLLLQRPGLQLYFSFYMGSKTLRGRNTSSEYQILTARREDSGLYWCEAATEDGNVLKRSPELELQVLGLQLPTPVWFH

| Relative KD | Binder |
| --- | --- |
| 0.6 | B1 |
| 0.7 | B2 |
| 1.3 | B3 |

Target: T6, FcgRIIIaF (human, UniProt P08637 17-208)
T6 construct: extracellular domain; Soluble extracellular domain with C-terminal His tag; polymorphic site made after J. Clin. Invest; also called FcγRIIIa F; not shown: His tag attached to the C terminus
Test: as above
Description: as §1

T6 sequence (P08637 17-208): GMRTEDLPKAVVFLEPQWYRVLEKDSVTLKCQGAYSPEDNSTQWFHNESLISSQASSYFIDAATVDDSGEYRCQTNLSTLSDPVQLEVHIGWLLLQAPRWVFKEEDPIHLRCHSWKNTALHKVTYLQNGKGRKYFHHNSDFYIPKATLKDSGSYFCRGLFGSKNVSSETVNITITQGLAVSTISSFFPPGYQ

| Relative KD | Binder |
| --- | --- |
| 1.1 | B1 |
| 1.6 | B2 |
| 1.2 | B3 |

Target: T1, FcgRIIb
Test: as above
Description: as §1

| Relative KD | Binder |
| --- | --- |
| 0.9 | B1 |
| 1.4 | B2 |
| 0.5 | B3 |

Target: T7, FcgRIIIaV (human, UniProt P08637 17-208)
T7 construct: extracellular domain; Soluble extracellular domain with C-terminal His tag; polymorphic site made after J. Clin. Invest; also called FcγRIIIa V; not shown: His tag attached to the C terminus
Test: as above
Description: as §1

T7 sequence (P08637 17-208 F176V limits assumed): as the sequence (P08637 17-208) above, with F160V counted along it

| Relative KD | Binder |
| --- | --- |
| 1.6 | B1 |
| 1.9 | B2 |
| 0.9 | B3 |

Target: T2, FcgRIIaR
Test: as above
Description: as §1

| Relative KD | Binder |
| --- | --- |
| 0.7 | B1 |
| 0.8 | B2 |
| 0.5 | B3 |

Target: T3, FcgRIIaH
Test: as above
Description: as §1

| Relative KD | Binder |
| --- | --- |
| 0.7 | B1 |
| 0.6 | B2 |
| 0.7 | B3 |

Target: T4, FcγRIIa H (FcγRIIa, allotype with His …)
Test: SPR (Biacore T100), antibody captured on antigen-peptide chip, FcγRIIa H as analyte; response per captured antibody relative to GpH7-B3/GpL16-k0
Description: Analysis of interaction between objective antibody and the FcγR was carried out using Biacore T100 (GE Healthcare). HBS-EP+ (GE Healthcare) was used as the running buffer, and the measurement temperature was set to 25° C. Chips produced by immobilizing the antigen peptide by the amine coupling method to a Series S Sencor Chip CM5 (GE Healthcare), or alternatively, chips produced by allowing preliminarily biotinylated antigen peptides to interact with and immobilize onto a Series S Sensor Chip SA (certified) (GE Healthcare) were used. Antibodies of interest were captured onto an antigen peptide-immobilized chip, and allowed to interact to each FcγR diluted with running buffer. To regenerate and repeatedly use the chip, the antibodies captured on the chip were washed off by reacting 10 mM glycine-HCl, pH 1.5.

| Ho/Con_2aH | Binder |
| --- | --- |
| 103 relative binding activity (control homodimerized antibody GpH7-B3/GpL16-k0 = 100) | B4 |
| 115 relative binding activity (control homodimerized antibody GpH7-B3/GpL16-k0 = 100) | B5 |
| 106 relative binding activity (control homodimerized antibody GpH7-B3/GpL16-k0 = 100) | B6 |
| 115 relative binding activity (control homodimerized antibody GpH7-B3/GpL16-k0 = 100) | B7 |

Target: T5, FcgRIa
Test: SPR (Biacore), antibody captured, FcgR as analyte
Description: (§2) Analysis of interaction between obj ective antibody and the FcγR was carried out using Biacore T100 (GE Healthcare), Biacore T200, Biacore A100, and Biacore 4000. HBS-EP+ (GE Healthcare) was used as the running buffer, and the measurement temperature was set to 25° C. Chips produced by immobilizing the antigen peptide by the amine coupling method to a Series S sensor Chip CM5 (GE Healthcare), chips produced by allowing preliminarily biotinylated antigen peptides to interact with and immobilize onto a Series S Sensor Chip SA (certified) (GE Healthcare), chips produced by immobilizing Protein L (ACTIGEN, BioVision) to Series S Sencor Chip CM5 (GE Healthcare), or chips produced by immobilizing Protein A/G (Thermo Scientific) to Series S Sencor Chip CM5 (GE Healthcare) were used. Antibodies of interest were captured onto these chips, and allowed to interact to each FcγR diluted with running buffer. To regenerate and repeatedly use the chip, the antibodies captured onto the chip were washed off by reacting 10 mM glycine-HCl, pH 1.5.

| Kd [nM] | Binder |
| --- | --- |
| 0.25 | B1 |
| 0.23 | B2 |
| 0.12 | B3 |

Target: T6, FcgRIIIaF
Test: SPR (Biacore), antibody captured, FcgR as analyte
Description: as §2

| Kd [nM] | Binder |
| --- | --- |
| 2 | B1 |
| 1.4 | B2 |
| 1.8 | B3 |

Target: T1, FcgRIIb
Test: SPR (Biacore), antibody captured, FcgR as analyte
Description: as §2

| Kd [nM] | Binder |
| --- | --- |
| 160 | B1 |
| 110 | B2 |
| 280 | B3 |

Target: T7, FcgRIIIaV
Test: SPR (Biacore), antibody captured, FcgR as analyte
Description: as §2

| Kd [nM] | Binder |
| --- | --- |
| 0.22 | B1 |
| 0.19 | B2 |
| 0.4 | B3 |

Target: T2, FcgRIIaR
Test: SPR (Biacore), antibody captured, FcgR as analyte
Description: as §2

| Kd [nM] | Binder |
| --- | --- |
| 29 | B1 |
| 26 | B2 |
| 40 | B3 |

Target: T3, FcgRIIaH
Test: SPR (Biacore), antibody captured, FcgR as analyte
Description: as §2

| Kd [nM] | Binder |
| --- | --- |
| 57 | B1 |
| 65 | B2 |
| 57 | B3 |
